# US20100093090A1, “METHOD AND KIT FOR EFFICIENT REPROGRAMMING OF SOMATIC CELLS” (priority 2008, published 2010)
# Key:
# [1] = system: human adult foreskin fibroblast (hAFF) cells; assay: Human iPS cell generation from fibroblasts by lentiviral transduction of reprogramming factors (colony counting, AP staining, GFP silencing); assay type: cell-based
# Experimental: 5×10^4 cells were plated onto a 10-cm dish. Shown are numbers of total colonies and AP-highly positive colonies (in parenthesis) counted on day 18 post-transduction. “4” indicates the reported four reprogramming factors OCT4 (O), SOX2 (S), KLF4 (K) and c-MYC (M). […] (C-E): Total colony numbers (left panels), highly AP-positive colony numbers (middle panels) and iPS colony numbers (right panels). The colony number shown are those induced from 10^5 cells plated on the feeder cells by different combinations of factors. The results of three independent experiments are shown with different colors. […] Numbers were counted on day 25 post-transduction; (D) The six factors (4PU) combination minus the reported four reprogramming factors, respectively. (Da and Db) Numbers were counted on day 25 post-transduction. (Dc) Numbers were counted on day 35 post-transduction. […] Numbers were counted on day 35 post-transduction.
# Lentiviral vector containing OCT4, SOX2, c-MYC, KLF4, UTF1, p53 siRNA and control p53 siRNA respectively (15 μg) together with pMDLg/pRRE, RSV/Rev and VSV-G (FIG. 13 A, B, C) (5 μg for each), were respectively transfected into 293T cells with the Ca3(PO4)2-method in 10-cm dishes and incubated overnight. 12 hours later, the medium was changed and virus was collected after subsequent 36 hours cultivation. Viral supernatant was collected and filtered through 0.45 μm filters (Millipore) and then placed onto target fibroblasts supplemented with 10 ng/μl polybrene (Sigma-Aldrich). Typically, 1×10^5 fibroblasts in a well of 6-well plate were infected with 250 μl viral supernatant of each gene. The viral supernatant was changed with fibroblast culture medium after 12 hours. […] 5-6 days later, the infected cells were collected, counted, and plated onto MEF feeders (typically 2×10^4 to 1×10^5 cells for a 10-cm dish). […] The efficiency to generate iPS cells was calculated according to Takahashi's method, by which the number of cell colonies was counted and divided by the number of cells plated onto feeders (Takahashi et. al., 2007) (FIGS. 1C, 1D, 1E, 5C, and 5D). […]
# p53 = assay: Knockdown of p53 expression by p53 shRNA in hAFF; assay type: cell-based, human; details: nonsense siRNA as control
# [2] = system: iPS cell generation efficiency; assay: iPS cell generation in presence of HDAC inhibitors (VPA, SBHA, Butyrate); assay type: cell-based
# Experimental: FIG. 10. The colony number shown are those induced from 10^4 cells plated on the feeder cells by different combinations of factors. IPS colony numbers were counted on day 25 post-transduction. (O: OCT4; S:SOX2; K: KLF4; G: GFP; P: P53siRNA; U: UTF1). (A) In presence of VPA, iPS cell generation efficiency could be enhanced by UTF1 or P53 siRNA, or their combination. […] VS: VPA+SBHA; VB: VPA+Butyrate. The working concentrations of VPA, SBHA and Butyrate in this study were 0.5 mM, 2 μM, 0.1 mM, respectively.
# Recently, it is reported that iPS cells could be generated when contacting with HDAC inhibitors (and/or other compounds) by a much higher efficiency. We further tested whether UTF1 and p53 siRNA would still work in the context of HDAC inhibitors.
# [3] = with the four factors, day 25 post-transduction
# p53, sequence (P04637 whole entry): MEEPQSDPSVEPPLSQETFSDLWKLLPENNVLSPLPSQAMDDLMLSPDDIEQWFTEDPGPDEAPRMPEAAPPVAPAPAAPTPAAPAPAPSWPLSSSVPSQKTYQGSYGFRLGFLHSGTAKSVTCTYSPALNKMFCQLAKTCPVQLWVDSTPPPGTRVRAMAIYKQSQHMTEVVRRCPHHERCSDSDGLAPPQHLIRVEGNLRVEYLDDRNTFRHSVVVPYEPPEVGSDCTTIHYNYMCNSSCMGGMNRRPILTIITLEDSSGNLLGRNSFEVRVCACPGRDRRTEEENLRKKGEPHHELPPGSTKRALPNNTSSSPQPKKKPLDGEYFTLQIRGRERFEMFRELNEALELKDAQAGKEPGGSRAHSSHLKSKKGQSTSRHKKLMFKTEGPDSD
molecule,measurement,setting,value
p53 siRNA: lentiviral pLL3.7-encoded shRNA against p53; DNA sequence encoding it GACTCCAGTGGTAATCTACT (SEQ ID NO: 6 and 7) (nucleic acid) DNA 1: TGACTCCAGTGGTAATCTACTTCAAGAGAGTAGATTACCACTGGAGTCTTTTTTC DNA 2: TCGAGAAAAAAGACTCCAGTGGTAATCTACTCTCTTGAAGTAGATTACCACTGGAGTCA,"iPS cells obtained out of every 100,000 human adult fibroblast cells after infection","[1]; together with Oct4, Sox2 and Klf4, without c-Myc, about 1 month post-infection, on average",about 30
same,highly AP-positive colony numbers and iPS colony numbers,[1]; [3],did not further exert its effect
same,total numbers of cell colonies,[1]; [3],dramatically enhanced
same,knockdown of p53 expression,p53,efficient
same,reprogramming efficiency when VPA was added,"[2]; VPA 0.5 mM, 10^4 cells plated, day 25 post-transduction",enhance the reprogramming efficiency significantly
same,reprogramming efficiency in presence of two HDAC inhibitor combination,"[2]; VPA+SBHA or VPA+Butyrate, 0.5 mM, 2 μM, 0.1 mM, day 25",enhances reprogramming efficiency
